What was measured:
[1] = molecular target: fibrinogen (species not stated)
[2] = molecular target: fibrinogen (species not stated); remark: listed apart in the source
[3] = molecular target: fibrinogen (species not stated); remark: listed apart in the source
[4] = molecular target: human fibrinogen (in citrated whole blood, plasma or platelet-rich plasma) (human) (UniProt P02671)

Substance: anterior gland hementin (Haementeria ghilianii) (enzyme)
- Specific Activity (Units/mg), Stage III material [1]: 1400 Units/mg

Substance: posterior gland hementin (Haementeria ghilianii) (enzyme)
- Specific Activity (Units/mg), Stage II material [2]: 11500 Units/mg

Substance: purified hementin (gland of origin not stated for the experiment) (enzyme)
- fibrinogenolysis assay: fibrinogen breakdown products on HPLC (RP300-C8) [3]: 90%
- deaggregation of pre-formed ADP-induced platelet aggregates (aggregometer) [4]: 3 min
- loss of coagulability of platelet-rich plasma with thrombin [4]: 10 min

From US5977056
